In patent US9101618B2, “Method for treating and/or preventing neurodegenerative disease by adiponectin receptor agonist” (TOKYO METROPOLITAN INSTITUTE OF MEDICAL SCIENCE, priority 2011, dated 2015):

What was measured:
Format in all cases: cell-based, rat
[1] = test system: GSK-3β (beta); assay: Addition of p38 MAPK inhibitor and AMPK inhibitor: phospho-GSK-3β western blotting; details: 1 μg/mL adiponectin 30 min, no inhibitor
Method: The aforementioned B103 neuroblastoma cells (α (alpha)S) were inoculated on the 6-well plate and cultured to a state of about 80-90% confluence. After washing with PBS, the aforementioned cells were further cultured for 10 min in an inhibition test medium prepared by adding either 5 μM p38 MAPK inhibitor (SB203580, Promega) or 5 μM AMPK inhibitor (Compound C, Calbiochem) to a serum-free medium. As a control, DMSO was added to a serum-free medium instead of the aforementioned inhibitors. Later, either recombinant human adiponectin (1 μg/mL, trimer, PROSPEC) or PBS was added so as to culture the cells for 30 min. The cells collected were then lysed with the aforementioned cell lysis solution. Supernatants were collected after performing centrifugation at 100,000×g for 30 min, and then subjected to western blotting. Here, western blotting was performed in accordance with the procedures described in example 1.
When performing western blotting to evaluate signal transduction pathways, the anti-phospho-GSK-3β (beta) (Ser9) antibody (D85E12, Cell Signaling Technology), the anti-GSK-3β (beta) antibody (BD Biosciences) and the anti-β (beta)-actin mouse monoclonal antibody (C-15, Sigma-Aldrich Japan Inc.) were used as primary antibodies after being appropriately diluted. Further, the HRP labeled anti-mouse IgG antibody (DAKO) was used as a secondary antibody after being appropriately diluted.

[2] = test system: AMPK; assay: Adiponectin addition (2): signal transduction, phospho-AMPK western blotting; details: 1 μg/mL, 0, 10 and 30 min
Method: (§1) The B103 neuroblastoma cells (α (alpha)S) and the B103 neuroblastoma cells (vector) were inoculated on a 5 cm dish and cultured to a state of about 80-90% confluence. Later, the aforementioned cells were washed with PBS, and then cultured in a serum-free medium for four hours. After washing with PBS, the cells were then cultured in a test medium (adiponectin-added group) prepared by adding recombinant human adiponectin (1_μg/mL, trimer, PROSPEC) to a serum-free medium. As a control, there was used a control medium (adiponectin non-added group) prepared by adding thereto PBS instead of recombinant human adiponectin. A culture time was 0, 10 and 30 min when evaluating signal transduction, 0, 1 and 2 hour(s) when evaluating tau phosphorylation. The cells collected were lysed with a cell lysis solution (1% TritonX-100, 1% Nonidet P-40, 50 mM HEPES, 150 mM NaCl, 10% glycerol, 1.5 mM MgCl2, 1 mM EGTA, 100_mM sodium fluoride, a protease inhibitor (NACALAI TESQUE, INC.)). Supernatants were collected after performing centrifugation at 100,000×g for 30 min, and were used as surfactant soluble fractions when performing western blotting. Here, western blotting was performed in accordance with the procedures described in example 1. […]

[3] = test system: B103 neuroblastoma cells (α (alpha)S); assay: Immunoprecipitation with anti-α-synuclein antibody, detection of phosphorylated tau (Ser 202); details: 1 μg/mL, 24 hours, NP40 soluble fraction
Method: Immunoprecipitation was performed by standard procedures known to those skilled in the art. Briefly, the B103 neuroblastoma cells (α (alpha)S) were inoculated on a 10 cm dish, and were cultured to a state of about 80-90% confluence. The cells were then washed with PBS, followed by being cultured in a test medium (adiponectin-added group) prepared by adding recombinant human adiponectin (1 μg/mL, trimer, PROSPEC) to a serum-free medium. As a control, there was used a control medium (adiponectin non-added group) prepared by adding thereto PBS instead of recombinant human adiponectin. After being cultured for 24 hours, the cells were then lysed with a NP40 lysis solution (1% IGEPAL CA630 (Sigma-Aldrich Japan Inc), 150 mM NaCl, 50 mM Tris-HCl (pH 8.0), a protease inhibitor (NACALAI TESQUE, INC.)). Supernatants were collected after performing centrifugation at 100,000×g for 30 min. The supernatants thus collected were used as NP40 soluble fractions when performing immunoprecipitation. Immunoprecipitation was performed using Immunoprecipitation Starter Pack (GE Healthcare Japan Corporation) in accordance with a manual provided by the manufacturer and vender. […]

[4] = test system: GSK-3β (beta); assay: Adiponectin addition (2): signal transduction, phospho-GSK-3β western blotting; details: 1 μg/mL, 0, 10 and 30 min
Method: as §1

[5] = test system: tau; assay: Adiponectin addition (3): tau phosphorylation (western blotting); details: 1 μg/mL, 0, 1 and 2 hour(s), B103 neuroblastoma cells (αS)
Method: as §1

B1: adiponectin: recombinant human adiponectin (trimer, PROSPEC) added to serum-free medium at 1 μg/mL (protein, UniProt Q15848 19-244, looked up)
Adiponectin: ETTTQGPGVLLPLPKGACTGWMAGIPGHPGHNGAPGRDGRDGTPGEKGEKGDPGLIGPKGDIGETGVPGAEGPRGFPGIQGRKGEPGEGAYVYRSAFSVGLETYVTIPNMPIRFTKIFYNQQNHYDGSTGKFHCNIPGLYYFAYHITVYMKDVKVSLFKKDKAMLFTYDQYQENNVDQASGSVLLHLEVGDQVWLQVYGEGERNGLYADNDNDSTFTGFLLYHDTN
**Q.** How did the “phosphorylated GSK-3β in surfactant soluble fraction” value [1] turn out when B1 was run?
**A.** Its value is “detected”.

**Q.** What about the “phosphorylation of AMPK” value [2] of the same molecule?
**A.** The value was “promoted”.

**Q.** And the “coprecipitation of phosphorylated tau with α-synuclein” value [3]?
**A.** The value was “did not coprecipitate”.

**Q.** And the “phosphorylation of GSK-3β” value [4]?
**A.** The value was “promoted”.

**Q.** And the “amount of phosphorylated tau (Ser 202, Ser 396)” value [5]?
**A.** Its value is “decreased”.
